The test has as its target T1, recombinant human CTLA-4-Fc fusion protein (R&D Systems) (human, UniProt P16410 37-162).
T1 construct: range 37-162; also called fusion protein CTLA-4/Fv; recombinant protein CTLA-4; not shown: IgG constant region (Fc) of the bought fusion protein
T1 sequence (looked up): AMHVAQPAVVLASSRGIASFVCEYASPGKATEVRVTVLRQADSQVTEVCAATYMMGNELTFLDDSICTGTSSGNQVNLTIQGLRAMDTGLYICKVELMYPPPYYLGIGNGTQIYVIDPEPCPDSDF
The test is described as follows: phage display panning on coated CTLA-4/Fc, then ELISA of purified scFv on coated recombinant CTLA-4.

B1: human anti-CTLA-4 single-chain variable region (scFv) antibody (scFv)
scFv: QVQLVQSGGGVVQPGRSLRLSCAASGFTFSSYGMHWVRQAPGKGLEWVAVIWYDGSRQYYADSVKGRFTISRDDSKNTMYLQMNSLRAEDTAVYYCARGGFWGAFDIWGQGTMVTVSSGSGGGGSDVVMTQSPGTLSLSPGEGATLSCRASQHVISSYLAWYQQKPGQAPRLLVYGASSRDTGVSDRFTGSGSGTDFTLTISRLEPEDSAVYFCQQYGTSPWTFGQGTKLEIKR
notes: also called anti-CTLA-4 scFv; CTLA-4scFv
As to B1, the binding result was “binds”.

The record behind these values is patent US20190048080A1 (SHANGHAI KANDA BIOTECHNOLOGY, published 2019).
